According to the supplement of paper PMC12042874:
± gives the uncertainty stated by the source.

Experiment: amyloid nucleation score (Sup35N fusion, yeast selection) (log enrichment); library NNK3; higher = more nucleation; inactive = no reads after selection
Summary of the method: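 Libraries of peptides of 20 random codons fused to Sup35N were expressed in psi-negative yeast and induced 24 hours with 100 μM copper sulfate. Selection was 7 days at 30°C on medium lacking adenine and uracil, and plasmid inserts were Illumina-sequenced before and after selection. Nucleation score is the DiMSum log enrichment of output over input reads, centred on the mode score of non-aggregating sequences, and sequences with under 100 input reads were left out.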

Row | Substance | amyloid nucleation score
1 | VALVVHSLR | inactive
2 | VCGDRKIFNHADVVYRMGRS | inactive
3 | VCGILAISGLLT | inactive
4 | VCIWSIETNVCSGCVKIKGF | inactive
5 | VCLKVQWDYCIRLWVGMSYD | inactive
6 | VCLLIRPID | inactive
7 | VCMEMLEHIMIWFNSVDT | inactive
8 | VCNYEVVAVIRDE | inactive
9 | VCPVERSY | inactive
10 | VCSVFLLLCANRLRVGGNYI | inactive
11 | VCSYSMISHSAKWFVLILEW | inactive
12 | VCTYNLAFGYFGVVWLTFVV | -0.519 ± 0.82
13 | VCVKYAMTPVWSAGAARFHK | inactive
14 | VCWSYNSNL | inactive
15 | VCYPHLYWMDPGWVS | inactive
16 | VDEIWMGGLFCILYVSEVHK | inactive
17 | VDLAIMLVDLLGHSKMYQTG | inactive
18 | VDLRSLSPGYIDFTVISPLL | -0.952 ± 0.83
19 | VDMSELVWIISPEVHTVSCS | inactive
20 | VDNCYDVITSLILSKYVLTL | inactive
21 | VDSLFSGKNYELECKFDSWI | inactive
22 | VDSSGLV | inactive
23 | VDVDCYLLSKNM | inactive
24 | VDVLER | inactive

Row | Substance | amyloid nucleation score
25 | VDYFW | inactive
26 | VEFSPMFHQGVTM | inactive
27 | VEGCKEGVRVYHLTFESFVI | inactive
28 | VENGCGAT | inactive
29 | VESCRKDTYNSWFFDCLGDR | inactive
30 | VESLSVSAAL | inactive
31 | VFAISV | inactive
32 | VFAMLLDMFDCARQWPAIPL | inactive
33 | VFCHTAIL | inactive
34 | VFCKNLNYALRMPSKWGLYT | inactive
35 | VFDCYHRTGVMETVCWNVFG | inactive
36 | VFEVVYV | inactive
37 | VFFFMELEYSYFEY | inactive
38 | VFFIAAFLSTCMR | inactive
39 | VFRTSLLKSYFGFNMKCDNY | 0.039 ± 0.26
40 | VFSIKIYKPKSSFHDRFYSV | inactive
41 | VFVDLPRARG | 0.499 ± 0.32
42 | VFVDYCNKYGEFVSGTAQVS | inactive
43 | VFVFLPSWDISYDDPRGWSV | 0.241 ± 0.19
44 | VFWYKYVFSCNIIQGLLRMK | inactive
45 | VFYFDSFRICSYVVLYGHMA | 0.601 ± 0.28
46 | VGAYYGMFNSLMSFLQWISQ | 0.733 ± 0.2
47 | VGDVFSKRCHMRLFMNSLER | inactive
48 | VGELIGLGSLWGMEINY | inactive

Row | Substance | amyloid nucleation score
49 | VGETWNSVACVLTQLWLTCE | -0.014 ± 0.26
50 | VGKYAGCCLKRPSLDAMGHV | inactive
51 | VGLFASPDRRYRMIAFVPGL | inactive
52 | VGLVMNCNKFYVLWFDQIGK | 2.27 ± 0.068
53 | VGMGLAKDVR | inactive
54 | VGPALNVVSWELV | inactive
55 | VGQCFNELVRFNRSGISRLV | inactive
56 | VGRYPSLVSLNDTCNDVTRI | inactive
57 | VGSLDVIVINQKFSVFVMSC | inactive
58 | VGTFRGSEGPRFVLVV | -0.486 ± 1.9
59 | VGTIVFVFSFASWPRVGYIR | inactive
60 | VGVFV | inactive
61 | VGVMLYWVKEFFVL | inactive
62 | VGVNWTFPMPLSTL | inactive
63 | VGWNQDGDHMKSLKVAWARW | inactive
64 | VHKYMGEVLHQYFPLMLYLF | 0.807 ± 0.1
65 | VHSCLLCHWSFYWLLFFMRS | inactive
66 | VHTVTSCNLKDLLMKIHCTR | inactive
67 | VHVRLQAPFPEAL | inactive
68 | VHVYCNWKFRDEIRANSTRR | inactive
69 | VIAVSYNFTWFKTSIFN | 1.31 ± 0.11
70 | VICLLPLT | 0.099 ± 0.3
71 | VICRKLVMPFVESNRWHWSN | inactive
72 | VIDDHMFQRKRQMVLKKQLN | inactive

Row | Substance | amyloid nucleation score
73 | VIFLGAYHNSLLNRAMHSGH | 1.45 ± 0.12
74 | VIFSITANIRAQFLFYCYRV | -0.083 ± 0.81
75 | VIHQIMIMYGVYPASMKLFF | 1.77 ± 0.098
76 | VIICIAGGLPMRTH | 1.71 ± 0.06
77 | VIIINRVIENRWSDRHEITN | 2.57 ± 0.053
78 | VIIYI | inactive
79 | VIKTLTHSFHLTNGFGTSYI | inactive
80 | VIKVWLLCRRIVSVQFLAP | inactive
81 | VIMADA | inactive
82 | VIMSRCPVHIDMVPRDAQPL | inactive
83 | VINSR | inactive
84 | VIPFPFNLGDYCRMFDPRRS | inactive
85 | VIRVTWGYNWNNYVKHVYRS | 0.35 ± 0.55
86 | VISFDVWSNRMCFLMGMIWH | inactive
87 | VISFLMKLRWYCTVHGSGGM | inactive
88 | VISLRLVLNWNVTGVSLLGW | 0.611 ± 0.16
89 | VIVARFLFMGTTFHVPDVRP | 1.97 ± 0.075
90 | VIVLNFALLRASLSAGFLMS | 0.405 ± 0.28
91 | VIYVKSIMSFSLCDFDY | 3.11 ± 0.074
92 | VKEMFKF | inactive
93 | VKNIWIDVTMGDQLFIPNFY | 2.36 ± 0.051
94 | VKRGLVCETSLCRYFFLFGQ | 1.35 ± 0.089
95 | VKSFVSFCSGTLSPLMFRSG | 0.535 ± 0.19
96 | VKTNVCTTYGHY | inactive

Row | Substance | amyloid nucleation score
97 | VKWLLGMSEWKG | -0.877 ± 2.4
98 | VLASWASYPTGSQSKGGERT | inactive
99 | VLDVVY | inactive
100 | VLFKYTSRIMDCVKTLKPLK | inactive
101 | VLGNRRFSGLFGEYQGKTTG | -0.593 ± 1.1
102 | VLGPDGRVKYVAKDSNIMVI | inactive
103 | VLGYDGAGKVVIFDVNLAGL | 1.87 ± 0.083
104 | VLIMPA | inactive
105 | VLIYLDRCRNFDEKGFHNFC | 0.448 ± 0.21
106 | VLKMAACNPGTNSLSTPGCG | inactive
107 | VLNFWGAVFPIIMLFYESVY | 2.03 ± 0.096
108 | VLPNIQFFYCMCWVMLYLPF | inactive
109 | VLRFFM | 0.399 ± 0.23
110 | VLRLFDTNPHDSREVAYFYF | inactive
111 | VLRRLGWICL | inactive
112 | VLSHSHGSWSRESYKLLRLD | inactive
113 | VLSRSKRTGISNYLCNLCEI | inactive
114 | VLSTVFKAKPNHNRAFMG | 0.063 ± 0.78
115 | VLTRTTRLTHSTTSICLLVL | inactive
116 | VLVSVILYIYYDDCFYSWSF | inactive
117 | VMAYRHAGRRFSDPKSIKIS | inactive
118 | VMKNSTIILSFTFLSPKVSF | 2.16 ± 0.069
